According to article PMC4211651:

Molecular target: native porcine cardiac thin filaments (F-actin plus regulatory proteins, troponin, and tropomyosin) (porcine) (UniProt P42639)
Assay: co-sedimentation

Row | Kd [µM] | Substance
1 | 2.2 | human cardiac myosin binding protein-C N-terminal domains C0C1 (domain or fragment)
2 | 2.2 | mouse cardiac myosin binding protein-C N-terminal domains C0C1 (domain or fragment)
